Substitutions are numbered along the chain they refer to.
T1: human FcγRIIa (167H) (human, UniProt P12318 36-217)
T1 construct: also called human FcγR2a allelic variant 167H
T1 sequence: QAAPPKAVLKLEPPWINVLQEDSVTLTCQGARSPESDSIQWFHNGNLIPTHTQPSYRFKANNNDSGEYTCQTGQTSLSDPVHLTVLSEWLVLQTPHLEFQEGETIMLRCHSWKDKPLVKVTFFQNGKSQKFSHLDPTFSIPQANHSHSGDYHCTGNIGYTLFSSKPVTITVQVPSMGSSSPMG

T2: human FcγRIIa (167R) (human, UniProt P12318 36-217)
T2 construct: also called human FcγR2a allelic variant 167R
T2 chain: T1 sequence with H133R

T3: human FcγRIIIb (NA2) (human, UniProt O75015 17-200)
T3 construct: also called human FcγR3b allelic variant NA2
T3 chain: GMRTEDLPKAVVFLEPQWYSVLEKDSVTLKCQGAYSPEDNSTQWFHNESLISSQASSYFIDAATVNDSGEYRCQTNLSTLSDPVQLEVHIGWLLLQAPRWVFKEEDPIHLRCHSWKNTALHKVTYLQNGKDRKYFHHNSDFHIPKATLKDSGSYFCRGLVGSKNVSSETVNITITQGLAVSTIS

T4: mouse FcγRI (mouse, UniProt P26151 25-297)
T4 construct: also called mFcγRI; mouse FcγR1
T4 sequence: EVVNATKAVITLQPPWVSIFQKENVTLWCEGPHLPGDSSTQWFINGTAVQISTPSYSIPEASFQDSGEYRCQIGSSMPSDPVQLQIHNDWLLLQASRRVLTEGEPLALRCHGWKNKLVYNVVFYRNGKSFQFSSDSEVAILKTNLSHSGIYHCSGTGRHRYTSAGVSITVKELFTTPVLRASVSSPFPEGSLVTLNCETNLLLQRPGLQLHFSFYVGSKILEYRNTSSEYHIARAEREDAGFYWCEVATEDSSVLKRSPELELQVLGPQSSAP

T5: mouse FcγRIIb (mouse, UniProt P08101 30-210)
T5 construct: also called mFcγRIIb; mouse FcγR2b
T5 sequence: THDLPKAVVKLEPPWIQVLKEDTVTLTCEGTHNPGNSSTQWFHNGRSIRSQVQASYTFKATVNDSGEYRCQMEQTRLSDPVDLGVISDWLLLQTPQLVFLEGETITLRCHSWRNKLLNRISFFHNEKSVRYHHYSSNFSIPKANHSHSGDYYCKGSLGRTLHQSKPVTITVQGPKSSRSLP

T6: mouse FcγRIII (mouse, UniProt P08508 31-215)
T6 construct: also called mFcγRIII; mouse FcγR3
T6 chain: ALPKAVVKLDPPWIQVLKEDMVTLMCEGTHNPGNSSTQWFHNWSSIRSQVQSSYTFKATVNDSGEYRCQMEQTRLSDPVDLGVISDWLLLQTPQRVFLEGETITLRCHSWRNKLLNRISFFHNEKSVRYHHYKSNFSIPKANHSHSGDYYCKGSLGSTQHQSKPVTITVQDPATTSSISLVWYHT

T7: mouse FcγRIV (mouse, UniProt A0A0B4J1G0 21-203)
T7 construct: also called mFcγRIV; mouse FcγR4
T7 sequence: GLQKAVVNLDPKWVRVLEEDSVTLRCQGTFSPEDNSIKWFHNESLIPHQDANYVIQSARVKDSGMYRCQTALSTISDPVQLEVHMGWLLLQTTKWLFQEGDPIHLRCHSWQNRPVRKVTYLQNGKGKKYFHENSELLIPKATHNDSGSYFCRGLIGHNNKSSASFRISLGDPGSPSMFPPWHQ

B1: Anti-CD154 antibody (SLAPH0336a/SLAPL0336a) with Fc variant LALA+ACT3 (SG1044) (antibody)
heavy: EVQLVESGGGSVKPGGSLKLSCAASGFTFSDHYMYWVRQTPEKRLEWVAIISGGGSYTSYPDSMKGRFTISRDNAKNILHLQMSSLKSEDTAMYYCTRESNGKPGFAYWGQGTLVTVSAASTKGPSVFPLAPSSKSTSGGTAALGCLVKDYFPEPVTVSWNSGALTSGVHTFPAVLQSSGLYSLSSVVTVPSSSLGTQTYICNVNHKPSNTKVDKRVEPKSCDKTHTCPPCPAPEAAGGPSVFLFPPKPKDTLMISRTPEVTCVVVDVSHEDPEVKFNWYVDGVEVHNAKTKPREEQYNSTYRVVSVLTVLHQDWLNGKEYKCKVSNKALPAPIEKTISKAKGQPREPQVYTLPPSREEMTKNQVSLTCLVKGFYPSDIAVEWESNGQPENNYKTTPPVLDSDGSFFLYSKLTVDKSRWQQGNVFSCSVLHEALHAHTTRKELSLSP
light: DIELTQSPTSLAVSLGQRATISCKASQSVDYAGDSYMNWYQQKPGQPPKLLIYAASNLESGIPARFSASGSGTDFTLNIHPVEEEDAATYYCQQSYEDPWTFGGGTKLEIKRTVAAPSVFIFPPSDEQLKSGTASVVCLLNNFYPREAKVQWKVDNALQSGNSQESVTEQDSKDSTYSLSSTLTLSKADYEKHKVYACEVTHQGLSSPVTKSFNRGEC
B2: Anti-CD154 antibody (SLAPH0336a/SLAPL0336a) with Fc variant LALA+ACT3+KAES (SG1105) (antibody)
heavy: B1 heavy with K328A, E335S
light: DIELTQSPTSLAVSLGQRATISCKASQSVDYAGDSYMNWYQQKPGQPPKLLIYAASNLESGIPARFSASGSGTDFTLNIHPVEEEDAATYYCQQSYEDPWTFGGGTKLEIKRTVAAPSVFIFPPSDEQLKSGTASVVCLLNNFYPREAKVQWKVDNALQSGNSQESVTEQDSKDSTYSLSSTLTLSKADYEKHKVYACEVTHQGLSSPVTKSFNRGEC
notes: also called LALA+KAES+ACT3
B3: Anti-CD154 antibody (SLAPH0336a/SLAPL0336a) with Fc variant LALA+ACT5+KAES (SG1106) (antibody)
heavy: B1 heavy with K328A, E335S, T438Y
light: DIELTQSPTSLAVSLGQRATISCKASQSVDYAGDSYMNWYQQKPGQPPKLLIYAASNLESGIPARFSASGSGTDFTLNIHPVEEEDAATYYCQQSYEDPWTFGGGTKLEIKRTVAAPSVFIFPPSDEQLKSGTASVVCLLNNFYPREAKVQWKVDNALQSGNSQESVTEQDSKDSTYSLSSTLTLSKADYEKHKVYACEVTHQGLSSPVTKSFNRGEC
notes: also called LALA+KAES+ACT5
B4: Anti-CD154 antibody (SLAPH0336a/SLAPL0336a) with Fc variant LALA+ACT5 (SG1045) (antibody)
heavy: B1 heavy with T438Y
light: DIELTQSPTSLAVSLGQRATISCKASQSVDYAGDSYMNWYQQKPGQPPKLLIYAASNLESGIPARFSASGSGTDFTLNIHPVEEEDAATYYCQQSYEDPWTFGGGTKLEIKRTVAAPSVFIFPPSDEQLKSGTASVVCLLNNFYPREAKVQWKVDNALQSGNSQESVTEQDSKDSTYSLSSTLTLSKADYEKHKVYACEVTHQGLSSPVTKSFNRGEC

molecular target: human C1q (Calbiochem) (human, UniProt P02745 23-245; P02746 28-253; P02747 29-245); assay: ELISA: antibody coated on the plate at the concentration shown, human C1q added, detected with HRP anti-human C1q, OD 450 nm
Sequence (P02745 23-245 limits assumed, chain 1 of 3): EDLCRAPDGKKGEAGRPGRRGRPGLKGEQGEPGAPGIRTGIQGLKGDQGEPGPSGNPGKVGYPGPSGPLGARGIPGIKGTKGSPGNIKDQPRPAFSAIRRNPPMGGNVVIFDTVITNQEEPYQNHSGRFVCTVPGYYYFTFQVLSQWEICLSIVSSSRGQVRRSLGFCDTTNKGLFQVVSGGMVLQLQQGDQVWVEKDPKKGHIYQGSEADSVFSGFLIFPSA
Sequence (P02746 28-253 limits assumed, chain 2 of 3): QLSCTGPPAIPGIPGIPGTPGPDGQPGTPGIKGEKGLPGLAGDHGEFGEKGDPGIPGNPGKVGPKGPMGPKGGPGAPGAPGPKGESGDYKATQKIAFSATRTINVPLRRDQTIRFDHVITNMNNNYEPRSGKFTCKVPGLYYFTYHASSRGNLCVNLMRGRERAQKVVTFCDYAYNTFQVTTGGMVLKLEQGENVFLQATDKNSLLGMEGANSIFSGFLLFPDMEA
Sequence (P02747 29-245 limits assumed, chain 3 of 3): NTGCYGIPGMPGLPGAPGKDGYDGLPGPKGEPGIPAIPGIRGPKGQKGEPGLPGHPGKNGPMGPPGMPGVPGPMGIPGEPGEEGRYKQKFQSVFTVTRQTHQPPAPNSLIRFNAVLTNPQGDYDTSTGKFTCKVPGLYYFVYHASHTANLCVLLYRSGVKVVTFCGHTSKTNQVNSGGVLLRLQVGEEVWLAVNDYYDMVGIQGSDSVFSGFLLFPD

Question: Does B1 bind?
Answer: Result: binds

Question: Does B2 bind?
Answer: Result: binds

Question: Does B3 bind?
Answer: Result: binds

Question: Does B4 bind?
Answer: Result: binds

molecular target: mouse C1q (from 10% mouse plasma) (mouse, UniProt P98086 23-245; P14106 26-253; Q02105 30-246); assay: ELISA: antibody coated on the plate at the concentration shown, 10% mouse plasma added, detected with biotinylated anti-mouse C1q and streptavidin-HRP, OD 405 nm
Sequence (P98086 23-245 limits assumed, chain 1 of 3): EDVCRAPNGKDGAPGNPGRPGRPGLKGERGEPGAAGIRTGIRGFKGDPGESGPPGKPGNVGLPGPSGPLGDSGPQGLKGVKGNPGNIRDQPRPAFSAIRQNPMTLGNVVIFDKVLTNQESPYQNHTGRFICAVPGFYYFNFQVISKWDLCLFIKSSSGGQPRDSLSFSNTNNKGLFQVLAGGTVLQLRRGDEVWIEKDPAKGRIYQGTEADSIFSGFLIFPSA
Sequence (P14106 26-253 limits assumed, chain 2 of 3): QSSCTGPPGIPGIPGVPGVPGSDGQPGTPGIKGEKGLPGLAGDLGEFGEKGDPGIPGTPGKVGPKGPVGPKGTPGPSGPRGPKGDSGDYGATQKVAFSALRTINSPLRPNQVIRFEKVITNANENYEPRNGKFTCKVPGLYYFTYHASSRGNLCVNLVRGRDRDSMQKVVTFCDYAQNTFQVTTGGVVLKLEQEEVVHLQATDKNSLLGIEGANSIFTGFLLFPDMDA
Sequence (Q02105 30-246 limits assumed, chain 3 of 3): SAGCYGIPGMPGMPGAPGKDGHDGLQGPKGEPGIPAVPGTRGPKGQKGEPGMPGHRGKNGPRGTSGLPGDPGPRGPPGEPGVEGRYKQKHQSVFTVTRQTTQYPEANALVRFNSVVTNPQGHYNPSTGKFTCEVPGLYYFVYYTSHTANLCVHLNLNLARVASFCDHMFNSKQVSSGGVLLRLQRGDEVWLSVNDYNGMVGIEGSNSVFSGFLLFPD

Question: Does B1 bind?
Answer: Result: binds

Question: Does B2 bind?
Answer: Result: binds

Question: Does B3 bind?
Answer: Result: binds

Question: Does B4 bind?
Answer: Result: binds

molecular target: T1, human FcγRIIa (167H); assay: SPR (Biacore T200, pH 7.4, 25 °C): His-tagged FcγR captured by anti-His antibody; antibody injected at 100 nM alone (Ab alone) or as 1:1 complex with trimeric CD154 (CD154 IC); binding level / capture level [B]

Question: Does B1 bind?
Answer: Result: no binding (tested: 100 nM)

Question: Does B2 bind?
Answer: Result: no binding (tested: 100 nM)

Question: Does B3 bind?
Answer: Result: no binding (tested: 100 nM)

Question: Does B4 bind?
Answer: Result: no binding (tested: 100 nM)

Molecular target: T2, human FcγRIIa (167R)
Assay: SPR (Biacore T200, pH 7.4, 25 °C): His-tagged FcγR captured by anti-His antibody; antibody injected at 100 nM alone (Ab alone) or as 1:1 complex with trimeric CD154 (CD154 IC); binding level / capture level [C]

Question: Does B1 bind?
Answer: Result: no binding (tested: 100 nM)

Question: Does B2 bind?
Answer: Result: no binding (tested: 100 nM)

Question: Does B3 bind?
Answer: Result: no binding (tested: 100 nM)

Question: Does B4 bind?
Answer: Result: no binding (tested: 100 nM)

Molecular target: T3, human FcγRIIIb (NA2)
Assay: SPR (Biacore T200, pH 7.4, 25 °C): His-tagged FcγR captured by anti-His antibody; antibody injected at 100 nM alone (Ab alone) or as 1:1 complex with trimeric CD154 (CD154 IC); binding level / capture level [H]

Question: Does B1 bind?
Answer: Result: no binding (tested: 100 nM)

Question: Does B2 bind?
Answer: Result: no binding (tested: 100 nM)

Question: Does B3 bind?
Answer: Result: no binding (tested: 100 nM)

Question: Does B4 bind?
Answer: Result: no binding (tested: 100 nM)

molecular target: T4, mouse FcγRI; assay: SPR (Biacore T200, pH 7.4, 25 °C): His-tagged FcγR captured by anti-His antibody; antibody injected at 100 nM alone (Ab alone) or as 1:1 complex with trimeric CD154 (CD154 IC); binding level / capture level [A]

Question: Does B1 bind?
Answer: Result: no binding (tested: 100 nM)

Question: Does B2 bind?
Answer: Result: no binding (tested: 100 nM)

Question: Does B3 bind?
Answer: Result: no binding (tested: 100 nM)

Question: Does B4 bind?
Answer: Result: no binding (tested: 100 nM)

molecular target: T5, mouse FcγRIIb; assay: SPR (Biacore T200, pH 7.4, 25 °C): His-tagged FcγR captured by anti-His antibody; antibody injected at 100 nM alone (Ab alone) or as 1:1 complex with trimeric CD154 (CD154 IC); binding level / capture level [B]

Question: Does B1 bind?
Answer: Result: no binding (tested: 100 nM)

Question: Does B2 bind?
Answer: Result: no binding (tested: 100 nM)

Question: Does B3 bind?
Answer: Result: no binding (tested: 100 nM)

Question: Does B4 bind?
Answer: Result: no binding (tested: 100 nM)

Molecular target: T6, mouse FcγRIII
Assay: SPR (Biacore T200, pH 7.4, 25 °C): His-tagged FcγR captured by anti-His antibody; antibody injected at 100 nM alone (Ab alone) or as 1:1 complex with trimeric CD154 (CD154 IC); binding level / capture level [C]

Question: Does B1 bind?
Answer: Result: no binding (tested: 100 nM)

Question: Does B2 bind?
Answer: Result: no binding (tested: 100 nM)

Question: Does B3 bind?
Answer: Result: no binding (tested: 100 nM)

Question: Does B4 bind?
Answer: Result: no binding (tested: 100 nM)

molecular target: T7, mouse FcγRIV; assay: SPR (Biacore T200, pH 7.4, 25 °C): His-tagged FcγR captured by anti-His antibody; antibody injected at 100 nM alone (Ab alone) or as 1:1 complex with trimeric CD154 (CD154 IC); binding level / capture level [D]

Question: Does B1 bind?
Answer: Result: no binding (tested: 100 nM)

Question: Does B2 bind?
Answer: Result: no binding (tested: 100 nM)

Question: Does B3 bind?
Answer: Result: no binding (tested: 100 nM)

Question: Does B4 bind?
Answer: Result: no binding (tested: 100 nM)
